Results as given in patent publication US20240024501A1 (BONUM THERAPEUTICS, published 2024).
Each block holds one binder with its values, some of them ahead of it.

Experiments:
[1] = target: T1, human IL-2 (human, UniProt P60568 21-153, biotin label in the IL2RB blocking assay); test: HTRF
T1 construct: also called biotin-labeled IL-2 (Acro Biosystems IL2-H82E4)
Description: (§1) The PURExpress scFv proteins were used directly in HTRF binding assays and cell-based functional assays.

[2] = target: PD-1 (human, UniProt Q15116 25-167, limits assumed); test: HTRF
Description: as §1

[3] = target: T1, human IL-2; test: HTRF, IL-2:Fc-IL2RB
Description: as §1

[4] = target: PD-1-Fc (UniProt Q15116 25-167, limits assumed); test: cell-based or functional assay
Sequence of PD-1-Fc (Q15116 25-167 limits assumed): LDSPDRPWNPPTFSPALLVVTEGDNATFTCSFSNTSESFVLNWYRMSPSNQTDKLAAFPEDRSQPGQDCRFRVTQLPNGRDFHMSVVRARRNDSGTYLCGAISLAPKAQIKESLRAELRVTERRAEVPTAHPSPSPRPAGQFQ

T1 sequence (P60568 21-153 limits assumed): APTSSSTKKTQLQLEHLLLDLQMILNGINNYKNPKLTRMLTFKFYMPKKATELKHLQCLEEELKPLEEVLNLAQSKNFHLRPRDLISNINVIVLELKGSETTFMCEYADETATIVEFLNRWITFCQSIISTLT
Sequence of PD-1 (Q15116 25-167 limits assumed): as the sequence (Q15116 25-167 limits assumed) above

B1: PD1-IL2-R02-A08 (scFv)
scFv: QVQLVQSGAEVKKPGASVKVSCKVSGYTFTSYDINWVRQAPGQGLEWMGWINPNSGDTGYAQKFQGRVTMTRDTSTSTVYMELSSLRSEDTAVYYCARDTGLGYYYGSGDFDYWGQGTLVTVSSASGGGGSGGGGSGGGGSHASDIQMTQSPSSLSASVGDRVTITCQASQDIHNYLNWYQQKPGKAPKLLIYDVSNLETGVPSRFSGSGSGTDFTLTISSLQPEDFATYYCQQAISFPLTFGGGTKVEIK
- IL2 Binding (HTRF signal) [1]: 520
- PD1 Binding (HTRF signal) [2]: 995
- IL2RB Blocking (HTRF signal) [3]: 1610

B2: PD1-IL2-R02-A11 (scFv)
scFv: QVQLVQSGAEVKKPGASVKVSCKASGHTFTRYYMHWVRQAPGQGLEWMGIINPSGGYATYAQKFQGRVTMTRDTSTSTVYMELSSLRSEDTAVYYCASGWDVWGQGTLVTVSSASGGGGSGGGGSGGGGSHASDIQMTQSPSSLSASVGDRVTITCRASQSINSWLAWYQQKPGKAPKLLIYATSTLESGVPSRFSGSGSGTDFTLTISSLQPEDFATYYCQQSYSFPPTFGQGTKVEIK
- IL2 Binding (HTRF signal) [1]: 1560
- PD1 Binding (HTRF signal) [2]: 1620
- IL2RB Blocking (HTRF signal) [3]: 1780

B4: AF4386 (other)
heavy 1: APTSSSTKKTQLQLEHLLLDLQMILNGINNYKNPKLTDMLTFEFYMPKKATELKHLQCLERELKPLEEVLNLAQSKNFHLRPRDLISNINVIVLELKGSETTFMCEYADETATIVEFLNRWITFCQSIISTLTGGGGSGGGGSGGGGSGGGGSQVQLVQSGAEVKKPGASVKVSCKASGDTFTRYYVHWVRQAPGQGLEWMGIINPSGGYASYAQKFQGRVTMTRDTSTSTVYMELSSLRSEDTAVYYCAAGLFIWGQGTLVTVSSAKTTAPSVYPLAPVCGDTTGSSVTLGCLVKGYFPEPVTLTWNSGSLSSGVHTFPAVLQSDLYTLSSSVTVTSSTWPSQSITCNVAHPASSTKVDKKIEPRGPTIKPCPPCKCPAPNAAGGPSVFIFPPKIKDVLMISLSPIVTCVVVDVSEDDPDVQISWFVNNVEVHTAQTQTHREDYNSTLRVVSALPIQHQDWMSGKEFKCKVNNKDLGAPIERTISKPKGSVRAPQVYVLPPPEEEMTKKQVTLTCMVTDFMPEDIYVEWTNNGKTELNYKNTEPVLDSDGSYFMYSDLRVEKKNWVERNSYSCSVVHEGLHNHHTTESFSRTPGK
heavy 2: QVQLVQSGAEVKKPGASVKVSCKASGDTFTRYYVHWVRQAPGQGLEWMGIINPSGGYASYAQKFQGRVTMTRDTSTSTVYMELSSLRSEDTAVYYCAAGLFIWGQGTLVTVSSAKTTAPSVYPLAPVCGDTTGSSVTLGCLVKGYFPEPVTLTWNSGSLSSGVHTFPAVLQSDLYTLSSSVTVTSSTWPSQSITCNVAHPASSTKVDKKIEPRGPTIKPCPPCKCPAPNAAGGPSVFIFPPKIKDVLMISLSPIVTCVVVDVSEDDPDVQISWFVNNVEVHTAQTQTHREDYNSTLRVVSALPIQHQDWMSGKEFKCKVNNKDLGAPIERTISKPKGSVRAPQVYVLPPPEKEMTKKQVSLTCLVKDFMPEDIYVEWTNNGKTELNYKNTEPVLKSDGSYFMYSKLTVEKKNWVERNSYSCSVVHEGLHNHHTTKSFSRTPGGGGSGGGSHHHHHH
light: DIQMTQSPSSLSASVGDRVTITCRASQSIGRYLAWYQQKPGKAPKLLIYSASNLETGVPSRFSGSGSGTDFTLTISSLQPEDFATYYCQQYNSFPVTFGPGTKVDIKRADAAPTVSIFPPSSEQLTSGGASVVCFLNNFYPKDINVKWKIDGSERQNGVLNSWTDQDSKDSTYSMSSTLTLTKDEYERHNSYTCEATHKTSTSPIVKSFNRNEC
- EC50 of IL-2 activity, HEK-Blue IL-2 reporter cells, IgG1 coated wells (no PD-1) [4]: 1.79 nM
- EC50 of IL-2 activity, HEK-Blue IL-2 reporter cells, PD-1 coated wells [4]: 50 pM

B5: AF4404 (other)
heavy 1: QVQLVESGGGVVQPGRSLRLDCKASGITFSNSGMHWVRQAPGKGLEWVAVIWYDGSKRYYADSVKGRFTISRDNSKNTLFLQMNSLRAEDTAVYYCATNDDYWGQGTLVTVSSAKTTAPSVYPLAPVCGDTTGSSVTLGCLVKGYFPEPVTLTWNSGSLSSGVHTFPAVLQSDLYTLSSSVTVTSSTWPSQSITCNVAHPASSTKVDKKIEPRGPTIKPCPPCKCPAPNAAGGPSVFIFPPKIKDVLMISLSPIVTCVVVDVSEDDPDVQISWFVNNVEVHTAQTQTHREDYNSTLRVVSALPIQHQDWMSGKEFKCKVNNKDLGAPIERTISKPKGSVRAPQVYVLPPPEKEMTKKQVSLTCLVKDFMPEDIYVEWTNNGKTELNYKNTEPVLKSDGSYFMYSKLTVEKKNWVERNSYSCSVVHEGLHNHHTTKSFSRTPGGGGGSGGGGSGGGGSGGGGSQVQLVQSGAEVKKPGASVKVSCKASGYTFTDYYMHWVRQAPGQGLEWMGIINPRAGYTSYALKFQGRVTMTRDTSTSTVYMELSSLRSEDTAVYYCTSGWDVWGQGTLVTVSSASGGGGSGGGGSGGGGSHASDIQMTQSPSSLSASVGDRVTITCRASQSISTWLAWYQQKPGKAPKLLIYAASSLDSGVPSRFSGSGSGTDFTLTISSLQPEDFATYYCQQSYSFPVTFGQGTKVEIKGGGSGGGSHHHHHH
heavy 2: QVQLVESGGGVVQPGRSLRLDCKASGITFSNSGMHWVRQAPGKGLEWVAVIWYDGSKRYYADSVKGRFTISRDNSKNTLFLQMNSLRAEDTAVYYCATNDDYWGQGTLVTVSSAKTTAPSVYPLAPVCGDTTGSSVTLGCLVKGYFPEPVTLTWNSGSLSSGVHTFPAVLQSDLYTLSSSVTVTSSTWPSQSITCNVAHPASSTKVDKKIEPRGPTIKPCPPCKCPAPNAAGGPSVFIFPPKIKDVLMISLSPIVTCVVVDVSEDDPDVQISWFVNNVEVHTAQTQTHREDYNSTLRVVSALPIQHQDWMSGKEFKCKVNNKDLGAPIERTISKPKGSVRAPQVYVLPPPEEEMTKKQVTLTCMVTDFMPEDIYVEWTNNGKTELNYKNTEPVLDSDGSYFMYSDLRVEKKNWVERNSYSCSVVHEGLHNHHTTESFSRTPGGGGGSGGGGSGGGGSAPTSSSTKKTQLQLEHLLLDLQMILNGINNYKNPKLTDMLTFEFYMPKKATELKHLQCLERELKPLEEVLNLAQSKNFHLRPRDLISNINVIVLELKGSETTFMCEYADETATIVEFLNRWITFCQSIISTLT
light: EIVLTQSPATLSLSPGERATLSCRASQSVSSYLAWYQQKPGQAPRLLIYDASNRATGIPARFSGSGSGTDFTLTISSLEPEDFAVYYCQQSSNWPRTFGQGTKVEIKRADAAPTVSIFPPSSEQLTSGGASVVCFLNNFYPKDINVKWKIDGSERQNGVLNSWTDQDSKDSTYSMSSTLTLTKDEYERHNSYTCEATHKTSTSPIVKSFNRNEC
- EC50 of IL-2 activity, HEK-Blue IL-2 reporter cells, PD-1 coated wells [4]: 26 pM
- EC50 of IL-2 activity, HEK-Blue IL-2 reporter cells, control wells (no PD-1) [4]: 64 pM

B7: AF4387 (other)
heavy 1: APTSSSTKKTQLQLEHLLLDLQMILNGINNYKNPKLTDMLTFEFYMPKKATELKHLQCLERELKPLEEVLNLAQSKNFHLRPRDLISNINVIVLELKGSETTFMCEYADETATIVEFLNRWITFCQSIISTLTGGGGSGGGGSGGGGSGGGGSQVQLVQSGAEVKKPGASVKVSCKASGYTFTDYYMHWVRQAPGQGLEWMGIINPRAGYTSYALKFQGRVTMTRDTSTSTVYMELSSLRSEDTAVYYCTSGWDVWGQGTLVTVSSAKTTAPSVYPLAPVCGDTTGSSVTLGCLVKGYFPEPVTLTWNSGSLSSGVHTFPAVLQSDLYTLSSSVTVTSSTWPSQSITCNVAHPASSTKVDKKIEPRGPTIKPCPPCKCPAPNAAGGPSVFIFPPKIKDVLMISLSPIVTCVVVDVSEDDPDVQISWFVNNVEVHTAQTQTHREDYNSTLRVVSALPIQHQDWMSGKEFKCKVNNKDLGAPIERTISKPKGSVRAPQVYVLPPPEEEMTKKQVTLTCMVTDFMPEDIYVEWTNNGKTELNYKNTEPVLDSDGSYFMYSDLRVEKKNWVERNSYSCSVVHEGLHNHHTTESFSRTPGK
heavy 2: QVQLVQSGAEVKKPGASVKVSCKASGYTFTDYYMHWVRQAPGQGLEWMGIINPRAGYTSYALKFQGRVTMTRDTSTSTVYMELSSLRSEDTAVYYCTSGWDVWGQGTLVTVSSAKTTAPSVYPLAPVCGDTTGSSVTLGCLVKGYFPEPVTLTWNSGSLSSGVHTFPAVLQSDLYTLSSSVTVTSSTWPSQSITCNVAHPASSTKVDKKIEPRGPTIKPCPPCKCPAPNAAGGPSVFIFPPKIKDVLMISLSPIVTCVVVDVSEDDPDVQISWFVNNVEVHTAQTQTHREDYNSTLRVVSALPIQHQDWMSGKEFKCKVNNKDLGAPIERTISKPKGSVRAPQVYVLPPPEKEMTKKQVSLTCLVKDFMPEDIYVEWTNNGKTELNYKNTEPVLKSDGSYFMYSKLTVEKKNWVERNSYSCSVVHEGLHNHHTTKSFSRTPGGGGSGGGSHHHHHH
light: DIQMTQSPSSLSASVGDRVTITCRASQSISTWLAWYQQKPGKAPKLLIYAASSLDSGVPSRFSGSGSGTDFTLTISSLQPEDFATYYCQQSYSFPVTFGQGTKVEIKRADAAPTVSIFPPSSEQLTSGGASVVCFLNNFYPKDINVKWKIDGSERQNGVLNSWTDQDSKDSTYSMSSTLTLTKDEYERHNSYTCEATHKTSTSPIVKSFNRNEC
- EC50 of IL-2 activity, HEK-Blue IL-2 reporter cells, IgG1 coated wells (no PD-1) [4]: 0.419 nM
- EC50 of IL-2 activity, HEK-Blue IL-2 reporter cells, PD-1 coated wells [4]: 57 pM

Other lines, results leading:

- IL2 Binding (HTRF signal) [1]: 298
- PD1 Binding (HTRF signal) [2]: 1300
- IL2RB Blocking (HTRF signal) [3]: 1070
B3: PD1-IL2-R02-C02 (scFv)
scFv: QVQLVQSGAEVKKPGVSVKVSCKASGYTFPRSYIHWVRQAPGQGLEWMGWINPHSGDTYYAQNFQGRVTMTRDTSTSTVYMELSSLRSEDTAVYYCARDTGLGYYYGSGDFDYWGQGTLVTVSSASGGGGSGGGGSGGGGSHASDIQMTQSPSSLSASVGDRVTITCRASQSISRYLNWYQQKPGKAPKLLIYTASSLQSGVPSRFSGSGSGTDFTLTISSLQPEDFATYYCQQANRFPLTFGPGTKVDIK
notes: cell-free expressed, V5-tagged

- IL2 Binding (HTRF signal) [1]: 628
- PD1 Binding (HTRF signal) [2]: 1680
- IL2RB Blocking (HTRF signal) [3]: 1810
B6: PD1-IL2-R02-B07 (scFv)
scFv: QVQLVQSGAEVKKPGASVKVSCKASGDTFTRHYVHWVRQAPGQGLEWMGIINPSGGYASYAQKFQGRVTMTRDTSTSTVYMELSSLRSEDTAVYYCAAGLFIWGQGTLVTVSSASGGGGSGGGGSGGGGSHASDIQMTQSPSSLSASVGDRVTITCRASQSIGRWLAWYQQKPGKAPKLLIYSASNLETGVPSRFSGSGSGTDFTLTISSLQPEDFATYYCQQANSFPVTFGPGTKVDIK

- IL2 Binding (HTRF signal) [1]: 2490
- PD1 Binding (HTRF signal) [2]: 1660
- IL2RB Blocking (HTRF signal) [3]: 1610
B8: PD1-IL2-R02-B05 (scFv)
scFv: QVQLVQSGAEVKKPGASVKVSCKASGYTFTNYYIHWVRQAPGQGLEWMGIINPRAGYTSYALKFQGRVTMTRDTSTSTVYMELSSLRSEDTAVYYCAGGWLDWGQGTLVTVSSASGGGGSGGGGSGGGGSHASDIQMTQSPSSLSASVGDRVTITCRASQSISSWLAWYQQKPGKAPKLLIYAASSLQSGVPSRFSGSGSGTDFTLTISSLQPEDFATYYCQQSFTMPITFGQGTRLEIK
